We go through four molecules from patent US20130089872A1 (LIVTECH, published 2013).

Experiment [1] deals with Table 9 peptide No. 14. As to the kind of experiment: PEPSCAN/CLIPS peptide ELISA, antibody 1 ug/mL. On the technique in general: In an ELISA, binding on a coated surface is turned into a signal by an enzyme label.
For experiment [2], the target named is T1, Table 9 peptide No. 26.
T1 construct: CLIPS format (inferred); native Cys replaced by Ala as printed
T1 peptide: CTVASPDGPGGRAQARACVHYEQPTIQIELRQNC
The experiment in a line: PEPSCAN/CLIPS peptide ELISA, antibody 1 ug/mL. The procedure: 5034 types of the synthesized peptides were covalently bound to PEPSCAN cards (455 peptides/card), and the binding of the synthesized peptides to antibodies was then analyzed by the ELISA method. […] After washing, the resultant was allowed to react with a 1000-fold diluted peroxidase-secondary antibody complex at 25° C. for 1 hour. After washing, a substrate solution (a solution containing 2,2′-azino-di-3-ethylbenzthiazoline sulfonate (ABTS) and 2 μL of 3% hydrogen peroxide solution) was added to the reaction solution, followed by a chromogenic reaction for 1 hour. The binding activity of the antibodies was quantified by photographing with a CCD camera and then performing an image analysis.

The target of experiment [3] is T2, hmTROP-2-C chimeric protein (human; mouse, UniProt Q8BGV3 140-317).
T2 construct: range 140-C-terminus; constitutively expressed on HEK293 cells; signal peptide 1-26 of hTROP-2 left out; also called human/mouse chimeric TROP-2-C; not shown: C-terminal myc/His tag from the vector
T2 sequence: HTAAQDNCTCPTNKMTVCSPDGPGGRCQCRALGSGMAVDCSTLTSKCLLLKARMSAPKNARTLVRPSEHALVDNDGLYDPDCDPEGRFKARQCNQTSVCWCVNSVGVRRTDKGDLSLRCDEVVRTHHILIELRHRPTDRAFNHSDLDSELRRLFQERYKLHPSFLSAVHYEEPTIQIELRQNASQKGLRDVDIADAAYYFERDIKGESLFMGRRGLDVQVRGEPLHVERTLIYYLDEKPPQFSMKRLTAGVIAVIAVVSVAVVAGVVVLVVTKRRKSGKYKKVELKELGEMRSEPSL
The experiment in a line: FACS on HEK293 cells constantly expressing hmTROP-2-C.

Experiment [4] addresses T3, hmTROP-2-A chimeric protein (human; mouse, UniProt Q8BGV3 64-317).
T3 construct: range 64-C-terminus; transiently expressed on HEK293 cells; also called human/mouse TROP-2-A; not shown: C-terminal myc/His tag from the vector
T3 sequence: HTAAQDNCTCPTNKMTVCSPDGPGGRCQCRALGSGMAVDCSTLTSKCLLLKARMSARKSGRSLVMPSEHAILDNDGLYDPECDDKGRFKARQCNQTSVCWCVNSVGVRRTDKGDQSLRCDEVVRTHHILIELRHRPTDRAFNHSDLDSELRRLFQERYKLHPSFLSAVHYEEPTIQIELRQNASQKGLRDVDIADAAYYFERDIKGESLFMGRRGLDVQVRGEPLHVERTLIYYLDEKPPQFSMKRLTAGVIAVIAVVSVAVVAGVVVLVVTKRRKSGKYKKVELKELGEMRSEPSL
As to the kind of experiment: FACS on HEK293 cells transiently expressing hmTROP-2-A.

Experiment [5] addresses T4, mouse TROP-2 protein (mouse, UniProt Q8BGV3 25-317).
T4 construct: whole, on cells
T4 sequence (looked up): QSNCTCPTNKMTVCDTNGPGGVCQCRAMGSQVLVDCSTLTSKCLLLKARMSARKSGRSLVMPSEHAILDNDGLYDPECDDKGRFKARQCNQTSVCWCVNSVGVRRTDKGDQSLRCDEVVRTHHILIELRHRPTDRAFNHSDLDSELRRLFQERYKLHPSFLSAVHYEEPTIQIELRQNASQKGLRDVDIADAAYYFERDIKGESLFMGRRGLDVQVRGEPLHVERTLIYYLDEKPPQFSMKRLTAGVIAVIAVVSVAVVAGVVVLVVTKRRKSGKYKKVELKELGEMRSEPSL
The experiment in a line: FACS on CHO-K1 cells transiently expressing mouse TROP-2. The source says: (§1) Specifically, each of an expression vector (mouse TROP-2-pcDNA3.1(+), furnished by the Institute of Molecular and Cellular Biosciences, the University of Tokyo) comprising the full-length cDNA of a mouse TROP-2 gene (GenBank accession No. NM_{—}020047, Y08830), and an expression vector (pcDNA3.1-hEpCAM-myc/His) comprising the full-length cDNA of a human TROP-1/EpCAM gene (GenBank accession No. NM_{—}002354), was transiently introduced into CHO-K1 cells, using Lipofectamine2000 reagent (Invitrogen). Thereafter, 24 to 48 hours later, the cells were removed from a culture dish by treating them with trypsin, and a cell suspension was then prepared. The thus prepared cell suspension was successively reacted with the produced anti-hTROP-2 monoclonal antibody (0.1 μg) and with PE-labeled anti-mouse IgG, and it was then analyzed by FACSCalibur.

The target in experiment [6] is T5, human TROP-2 (hTROP-2) protein (human, UniProt P09758 27-323).
T5 construct: also called Tacstd2; GA733-1
T5 sequence: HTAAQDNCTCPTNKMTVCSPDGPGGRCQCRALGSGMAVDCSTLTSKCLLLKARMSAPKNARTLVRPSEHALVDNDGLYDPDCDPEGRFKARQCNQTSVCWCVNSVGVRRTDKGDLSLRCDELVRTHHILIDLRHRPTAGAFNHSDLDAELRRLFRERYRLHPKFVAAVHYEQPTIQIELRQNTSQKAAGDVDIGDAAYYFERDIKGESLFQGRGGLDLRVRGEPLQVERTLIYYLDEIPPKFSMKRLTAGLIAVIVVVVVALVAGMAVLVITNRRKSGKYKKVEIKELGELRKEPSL
As to the kind of experiment: FACS on PK-59 cells (endogenous hTROP-2), 0.1 ug antibody. The procedure: (§2) Cancer cells were removed from a culture dish by a trypsin treatment, and a cell suspension was then prepared (cell density: 2×10⁶ cells/mL). An anti-hTROP-2 monoclonal antibody (0.1 μg) was added to 100 μL of the cell suspension, and they were then reacted at 4° C. for 20 minutes. The reaction solution was washed with PBS, and it was then reacted with PE-labeled anti-mouse IgG (BD Biosciences Pharmingen) (0.1 μg) (at 4° C. for 30 minutes). Thereafter, the resultant was analyzed by FACSCalibur (Becton, Dickinson and Company).

Experiment [7] addresses T5, human TROP-2 (hTROP-2) protein. The experiment in a line: FACS on BxPC-3 cells (endogenous hTROP-2), 0.1 ug antibody. The protocol:
as §2

The target in experiment [8] is T6, human TROP-1/EpCAM protein (human, UniProt P16422 24-314).
T6 construct: whole, on cells; vector adds a C-terminal myc/His tag; also called human EpCAM/TROP-1; hEpCAM
T6 sequence (looked up): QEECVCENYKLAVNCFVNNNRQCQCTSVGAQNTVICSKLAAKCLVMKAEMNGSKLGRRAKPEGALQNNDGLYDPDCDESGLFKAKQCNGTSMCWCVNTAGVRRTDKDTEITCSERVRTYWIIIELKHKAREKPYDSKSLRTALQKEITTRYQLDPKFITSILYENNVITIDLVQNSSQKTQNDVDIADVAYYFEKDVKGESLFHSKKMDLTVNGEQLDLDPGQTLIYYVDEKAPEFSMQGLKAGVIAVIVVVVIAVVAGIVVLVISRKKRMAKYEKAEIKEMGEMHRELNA
As to the kind of experiment: FACS on CHO-K1 cells transiently expressing human EpCAM/TROP-1.
Description: as §1

Experiment [9] deals with T7, recombinant protein of the extracellular region of hTROP-2 (human, UniProt P09758 27-263).
T7 construct: made with baculovirus, purified on Ni Sepharose; also called purified recombinant hTROP-2 protein; hTROP-2 EC; not shown: C-terminal myc/His tag from the pcDNA4/myc-His A vector
T7 sequence: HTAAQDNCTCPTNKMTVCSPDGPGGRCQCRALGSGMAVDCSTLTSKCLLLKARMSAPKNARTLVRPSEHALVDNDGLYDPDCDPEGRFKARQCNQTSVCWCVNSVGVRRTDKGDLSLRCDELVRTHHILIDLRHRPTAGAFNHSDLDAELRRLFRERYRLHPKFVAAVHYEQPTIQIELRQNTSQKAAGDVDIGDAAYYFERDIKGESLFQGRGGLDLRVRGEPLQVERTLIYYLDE
The experiment in a line: equilibrium competition ELISA (Djavadi-Ohaniance method), recombinant hTROP-2. The procedure: The antigen binding affinity (Kd value) of the generated anti-hTROP-2 monoclonal antibody was calculated by a method using ELISA (Djavadi-Ohaniance L. et al (1996), In Antibody Engineering, Chapter 4, pp. 77-97. IRL Press, Oxford).
Specifically, the purified recombinant hTROP-2 protein (0.1 μg/mL) was added to a 96-well culture plate (Corning) so that the antigen was solid-phased (at room temperature for 1 hour, or at 4° C. overnight). Subsequently, the resultant was washed with PBS three times, and 2% skim milk (PBS solution) was then added thereto to block it (at room temperature for 1 hour). The resultant was washed with PBS twice. […] The reaction product was washed with PBS three times, and it was then reacted with HRP-labeled anti-mouse IgG (final concentration: 1 μg/mL) (GE Healthcare Biosciences) diluted with a blocking solution (at room temperature for 1 hour). Subsequently, the reaction product was washed with a 0.1% Tween20-PBS solution three times, and a TMB (3,3′,5,5′-tetramethylbenzidine: SIGMA) substrate solution was then added to the resultant to carry out a color reaction. Then, 1 M sulfuric acid was added to the reaction product to terminate the reaction. Using Microplate reader Model 550 (BIO RAD), absorbance was measured.

Experiment [10] has as its target Table 7 peptide No. 16. The experiment in a line: PEPSCAN/CLIPS peptide ELISA, antibody 1 ug/mL.
In experiment [11] the target is Table 7 peptide No. 19. The experiment in a line: PEPSCAN/CLIPS peptide ELISA, antibody 1 ug/mL.

B1: anti-hTROP-2 monoclonal antibody clone K5-116-2-1 (antibody, V domains shown)
VH: QVQLQQPGAELVRPGASVKLSCKASGYTFTSYWITWVKQRPGQGLEWIGNIYPSDSYTNYNQKFRDKATLTVDKSSSTAYMQLSSPTSEDSAVYYCSALFDYWGQGTTLTVSS
VL: DILLTQSPAILSVSPGERVSFSCRASQSIGTSIHWYQQRTNGSPRLLIKYASESISGIPSRFSGSGSGTDFILSINSVESEDIADYYCQQSNSWPFTFGSGTKLEIK
notes: mouse IgG; also called hybridoma FERM BP-11253
As for B1, the binding (PEPSCAN ELISA signal) was found to be 1440 in [1] and 1220 in experiment [2]. In addition, the binding result was “binds” in experiment [3], “binds” in [4], “no binding (tested: 0.1 ug)” in experiment [5] and “no binding (tested: 0.1 ug)” in [8]. In addition, the entries for the “mean fluorescence intensity relative to secondary antibody only” value in experiment [6] and in experiment [7] were 122 times and 121 times, respectively. The dissociation constant Kd (in general, the constant that tells how readily two partners part at equilibrium) in [9] is 26.9 pM.

B2: anti-hTROP-2 monoclonal antibody clone K5-107 (antibody, V domains shown)
VH: QVQLQQPGSELVRPGASVKLSCKASGYTFTSYWMHWVKQRHGQGLEWIGNIYPGGGYTNYDEKFKSKGTLTVDTSSSTAYMHLSSLTSEDSAVYYCTRSSVFDYWGQGTTLTVSS
VL: DILLTQSPAILSVSPGERVSFSCRASQNIGTSIHWFQQRTNGSPRLLIKYASESISGIPSRFSGSGSGTDFTLSINSVESEDIADYYCQQSNSWPFTFGSGTKLEIK
notes: mouse IgG1 purified from hybridoma ascites; also called hybridoma FERM BP-11252
In the case of B2, the binding result in experiment [5] and in experiment [8] was “no binding (tested: 0.1 ug)” in each case.

B3: anti-hTROP-2 monoclonal antibody clone K5-70 (antibody, V domains shown)
VH: QVQLQQPGAELVRPGASVKLSCKASGYTFTIYWINWVKQRPGQGLEWIGNIYPSDSYTNYNQKFKDKATLTVDKSSSTAYMQLSSPTSEDSAVYYCTRTSMADYWGQGTTLTVSS
VL: DILLTQSPAILSVSPGERVSFSCRASQSIGTSIHWYQQRTNGSPRLLIKYASESISGIPSRFSGSGSGTDFTLSINSVESEDIADYYCQQSNSWPFTFGSGTKLEIK
notes: mouse IgG2a purified from hybridoma ascites; also called K-70; hybridoma FERM BP-11251
For B3, the binding (PEPSCAN ELISA signal) is 538 in experiment [10] and 519 in experiment [11]. Moreover, the binding result in [3] was “binds”; in experiment [4] it was “binds”; in [5], “no binding (tested: 0.1 ug)”; in experiment [8], “no binding (tested: 0.1 ug)”. In experiment [9], the dissociation constant Kd came to 6.8 pM.

B4: anti-hTROP-2 monoclonal antibody clone T6-16 (antibody, V domains shown)
VH: EVQLQQSGPELVKPGASVKISCKASGYTFTDYNMHWVKQSHGKNLEWIGYIYPYNGGTGYNQRFKSRATMTVDKSSSTAYMELRSLTSDDSAVYYCAREDYGSSPSYAMDYWGQGTSVIVSS
VL: DVVMTQTPLSLPVSLGDQASISCRSSQSLVHGNGNTYLHWYLQKPGQSPKLLIYKVSNRFSGVPDRFSGSGSGTDFTLKISRVEAEDLGVYFCSQTTHVPTFGSGTKLEIK
notes: mouse IgG2a purified from hybridoma ascites; also called 16-16; hybridoma FERM BP-11346
For the molecule B4, the binding result in experiment [3] is on record as “no binding”; in [5] it was “no binding (tested: 0.1 ug)”; in experiment [8], “no binding (tested: 0.1 ug)”. Also, the equilibrium dissociation constant (Kd) in experiment [9] is 4.3 pM.
